Results reported in patent US11279770 (MERUS N V, dated 2022).
Each block holds one binder with its values, some of them ahead of it.

Tests used:
[1] = biological target: human HER2 and HER3 co-expressed on tumour cells (human, UniProt P04626 23-1255; P21860 20-1342); assay: cell-based or functional assay
human ErbB-2 (HER2) [2] = biological target: T1, human ErbB-2 (HER2) (human, UniProt P04626 23-1255); assay: cell-based or functional assay
ErbB2-Fc (RND systems) = biological target: T2, ErbB2-Fc (RND systems) (UniProt P04626 23-652); assay: SPR (BIACORE T100), ErbB2-Fc on CM5 chip, bispecific as analyte, 1:1 monovalent model
T2 construct: Bought protein; also called Fc-HER2; Her2-Fc; not shown: Fc part of the bought fusion protein

human ErbB-3 (HER3) [3] = biological target: T3, human ErbB-3 (HER3) (human, UniProt P21860 20-1342); assay: FACS on CHO-K1 cells with HER3 constructs; epitope group 3 = 'Reactivity to rat, cyno and human HER3' (Table 5)
T3 construct: whole, on cells; On tumour cell lines

human ErbB-2 (HER2) [4] = biological target: T1, human ErbB-2 (HER2); assay: antigen titration ELISA: coated monomeric HER2 (ECD-Erbb-2) varied about 0.019-2.5 µg/ml (x axis), IgG fixed at 10 µg/ml as the text says; readout OD450 [lower panel]
Experimental: Wells of the ELISA plates were blocked with PBS (pH 7.2) containing 5% BSA for 1 hour at 37° C. Selected antibodies were tested in duplo at a concentration of 10 µg/ml diluted in PBS-2% BSA and allowed to bind for 2 hours at 25° C. As a control the procedure was performed simultaneously with an antibody specific for the coated antigens and a negative control antibody. The ELISA plates were washed 5 times with PBS-T (PBS-0.05% v/v Tween 20). Bound IgG was detected with 1:2000 diluted IIRP-conjugate (Goat anti-mouse IgG, BD Biosciences) and was allowed to bind for 2 hours at 25° C. The ELISA plates were washed 5 times with PBS-T (PBS-0.05% Tween 20) and bound IgG was detected by means of OD492 nm measurement.

human ErbB-3 (HER3) [5] = biological target: T3, human ErbB-3 (HER3); assay: cell-based or functional assay

B1: PB3566 (MF3004xMF3178) (bispecific antibody, IgG1, V domains shown)
VH 1: QVQLKQSGAELVRPGASVKLSCKASGYTFTGYYINWVKQRPGQGLEWIARIYPGSGYTYYNEKFKGKATLTAEESSSTAYMHLSSLTSEDSAVYFCARPHYGYDDWYFGVWGTGTTVTVSS
VH 2: not shown
VL: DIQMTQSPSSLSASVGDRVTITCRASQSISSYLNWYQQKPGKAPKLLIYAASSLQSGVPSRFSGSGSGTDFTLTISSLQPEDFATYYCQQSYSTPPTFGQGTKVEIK
BxPC3 % Inhibition [1]: -20%
MCF-7 IC50 (pM), HRG dependent proliferation [1]: 7.9 pM

B3: PB3448 (MF1849xMF3178) (bispecific antibody, IgG1, V domains shown)
VH 1: QVQLVESGGGVVQPGRSLRLSCAASGFTFSSYGMHWVRQAPGKGLEWVAVISYDGSNKYYADSVKGRFTISRDNSKNTLYLQMNSLRAEDTAVYYCAKGDYGSYSSYAFDYWGQGTLVTVSS
VH 2: not shown
VL: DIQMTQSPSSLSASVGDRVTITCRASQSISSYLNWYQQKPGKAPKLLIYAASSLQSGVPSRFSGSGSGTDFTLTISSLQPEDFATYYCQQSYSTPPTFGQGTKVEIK
notes: IgG1 bispecific with CH3 heterodimerisation mutations
BxPC3 % Inhibition [1]: -22%
MCF-7 IC50 (pM), HRG dependent proliferation [1]: 371 pM
Kd (ErbB2-Fc (RND systems)): 5.4 nM

B5: PG2930 (antibody, IgG1, V domains shown)
VH: EVQLQQSGAELVKPGASVMMSCKVSGYTFTSYPIAWMKQVHGKSLEWIGNFHPYSDDTKYNENFKGKATLTVEKSSSTVYLELSRLTSDDSAVYYCARSNPLYYFAMDYWGQGTSVTVSS
VL: not shown
notes: Monospecific IgG1; also called MF2930; copies: 2 + 2
HRG dependent MCF-7 proliferation assay, % activity compared to #Ab6, 1 µg/ml IgG (human ErbB-2 (HER2) [2]): 7%
SKBR-3 proliferation assay, % activity compared to trastuzumab, 1 µg/ml IgG (human ErbB-2 (HER2) [2]): 0%
EC50 (read off the curve) (human ErbB-2 (HER2) [4]): ~0.7 µg/mL

B7: #Ab6 (antibody, V domains shown)
VH: EVQLLESGGGLVQPGGSLRLSCAASGFTFSHYVMAWVRQAPGKGLEWVSSISSSGGWTLYADSVKGRFTISRDNSKNTLYLQMNSLRAEDTAVYYCTRGLKMATIFDYWGQGTLVTVSS
VL: QSALTQPASVSGSPGQSITISCTGTSSDVGSYNVVSWYQQHPGKAPKLIIYEVSQRPSGVSNRFSGSKSGNTASLTISGLQTEDEADYYCCSYAGSSIFVIFGGGTKVTVL
BxPC3 % Inhibition (human ErbB-3 (HER3) [5]): -7%
MCF-7 IC50 (pM), HRG dependent proliferation (human ErbB-3 (HER3) [5]): 504 pM

The remaining lines, values ahead:

HRG dependent MCF-7 proliferation assay, % activity compared to #Ab6, 1 µg/ml IgG (human ErbB-2 (HER2) [2]): 56%
SKBR-3 proliferation assay, % activity compared to trastuzumab, 1 µg/ml IgG (human ErbB-2 (HER2) [2]): 49%
B2: PG3004 (antibody, IgG1, V domains shown)
VH: QVQLKQSGAELVRPGASVKLSCKASGYTFTGYYINWVKQRPGQGLEWIARIYPGSGYTYYNEKFKGKATLTAEESSSTAYMHLSSLTSEDSAVYFCARPHYGYDDWYFGVWGTGTTVTVSS
VL: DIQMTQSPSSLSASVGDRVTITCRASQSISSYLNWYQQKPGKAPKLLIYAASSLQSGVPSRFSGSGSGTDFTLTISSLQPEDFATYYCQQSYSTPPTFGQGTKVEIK

binding result (human ErbB-3 (HER3) [3]): binds
B4: PG3099 (antibody, IgG1, V domains shown)
VH: EVQLQQPGAELVRPGTSVKLSCKASGYTFTSYWMHWVKQRPGQGLEWIGILDPSDSYTTYNQKFKGKATLTVDTSSSIAYMQLSSLTSEDSALYYCARGGDYDEGGAMDYWGQGTSVTVSS
VL: not shown
notes: Monospecific IgG1; also called MF3099; copies: 2 + 2

HRG dependent MCF-7 proliferation assay, % activity compared to #Ab6, 1 µg/ml IgG (human ErbB-2 (HER2) [2]): 58%
SKBR-3 proliferation assay, % activity compared to trastuzumab, 1 µg/ml IgG (human ErbB-2 (HER2) [2]): 49%
B6: PG2973 (antibody, IgG1, V domains shown)
VH: QVQLKQSGAELVRPGASVKLSCKASGYIFTGYYINWLRQRPGQGLEWIAKIYPGSGNTYYNEKFRGKATLTAEESSSTAYMQLSSLTSEDSAVYFCARGPHYDYDGPWFVYWGQGTLVTVSS
VL: not shown
